Source: patent publication US20230285583A1, “LIQUID FORMULATION OF LONG-ACTING CONJUGATE OF GLUCAGON, GLP-1, AND GIP TRIGONAL AGONIST” (HANMI PHARM, CO., LTD., priority 2020, published 2023)
Bridge positions count the residues as written; N and C are the ends. Square brackets hold non-standard residues; d marks the D form. Ends that are not written are not given here. * marks the point of attachment. Acetyl(2-(4-imidazolyl)) = O=C(Cc1c[nH]cn1)*; Aib = CC(C)(N)C(=O)O

T1: human GIP receptor (human, UniProt P48546 22-466)
T1 sequence (looked up): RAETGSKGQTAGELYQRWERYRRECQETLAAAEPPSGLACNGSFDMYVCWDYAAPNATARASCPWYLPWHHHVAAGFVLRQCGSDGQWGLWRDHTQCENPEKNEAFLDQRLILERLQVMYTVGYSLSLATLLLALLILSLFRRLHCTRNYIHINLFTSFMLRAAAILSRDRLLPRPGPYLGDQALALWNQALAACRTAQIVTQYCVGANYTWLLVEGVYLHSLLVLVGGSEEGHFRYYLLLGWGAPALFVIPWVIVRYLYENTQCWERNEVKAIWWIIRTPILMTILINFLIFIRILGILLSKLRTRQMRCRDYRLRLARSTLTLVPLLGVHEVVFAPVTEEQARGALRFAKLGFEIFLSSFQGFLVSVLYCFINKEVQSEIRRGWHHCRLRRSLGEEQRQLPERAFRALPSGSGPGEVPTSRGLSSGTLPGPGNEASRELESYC


What was measured:
Assay in all cases: cell-based or functional assay
human GLP-1 receptor = human GLP-1 receptor (human, UniProt P43220 24-463)
human GCG receptor = human GCG receptor (human, UniProt P47871 26-477)
human GIP receptor = biological target: T1, human GIP receptor

Sequence of human GCG receptor (P47871 26-477): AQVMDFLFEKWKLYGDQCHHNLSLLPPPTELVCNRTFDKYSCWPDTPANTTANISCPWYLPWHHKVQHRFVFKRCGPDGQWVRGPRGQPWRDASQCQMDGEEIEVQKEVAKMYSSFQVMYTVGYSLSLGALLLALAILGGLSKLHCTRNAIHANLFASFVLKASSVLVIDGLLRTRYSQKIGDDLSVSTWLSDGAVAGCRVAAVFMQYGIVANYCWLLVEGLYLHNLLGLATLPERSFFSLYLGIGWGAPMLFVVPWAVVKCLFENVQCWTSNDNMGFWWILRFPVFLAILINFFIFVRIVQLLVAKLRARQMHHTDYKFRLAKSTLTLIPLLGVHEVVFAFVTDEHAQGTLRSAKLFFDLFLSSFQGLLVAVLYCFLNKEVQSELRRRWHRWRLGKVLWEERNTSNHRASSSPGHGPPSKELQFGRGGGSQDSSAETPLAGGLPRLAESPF

Binder	In Vitro Activity Compared to Native Peptide (%) vs. GLP-1 (relative titer from cAMP EC50) (human GLP-1 receptor) [%]	In Vitro Activity Compared to Native Peptide (%) vs. Glucagon (relative titer from cAMP EC50) (human GCG receptor) [%]	In Vitro Activity Compared to Native Peptide (%) vs. GIP (relative titer from cAMP EC50) (human GIP receptor) [%]
[Acetyl(2-(4-imidazolyl))][Aib]QGTFTSDYSKYLDEKRQKEFVNWLLAQC (bridge 16-20; not fully specified (bridges)) [trigonal agonist of SEQ ID NO: 37]	28.4	0.4	0.2
[Acetyl(2-(4-imidazolyl))][Aib]QGTFTSDYSKYLDEKRQKEFVNWLLAQKC (bridge 16-20; not fully specified (bridges)) [trigonal agonist of SEQ ID NO: 39]	5.7	0.3	0.7
Y[Aib]QGTFTSDYSKALDEKAAKEFVNWLLDHHPSSGQPPPSC (bridge 16-20; not fully specified (bridges)) [trigonal agonist of SEQ ID NO: 42]	28.1	8.2	47.1
H[Aib]EGTFTSDYSIAMDEIHQKDFVNWLLAQKC (lactam 16-20) [trigonal agonist of SEQ ID NO: 34]	41.5	4.9	1.4
{Acetyl(2-(4-imidazolyl))}-[Aib]EGTFTSDYSIAMDEIHQKDFVNWLLAQC (lactam 15-19) [trigonal agonist of SEQ ID NO: 36]	47.3	1.3	0.4
H[Aib]QGTFTSDYSKYLDEKACKDFVQWLLDGGPSSGAPPPS (lactam 16-20) [trigonal agonist of SEQ ID NO: 5]	151	1.7	8.8
H[Aib]QGTFTSDYSKYLDEKRQKEFVNWLLAQKC (bridge 16-20; not fully specified (bridges)) [trigonal agonist of SEQ ID NO: 6]	19.1	0.92	0.6
Y[Aib]QGTFTSDYSKYLDEKRAKEFVQWLLDHHCSSGQPPPS (bridge 16-20; not fully specified (bridges)) [trigonal agonist of SEQ ID NO: 10]	12.6	88.4	3.7
H[Aib]QGTFTSDYSKYLDEKRAKEFVQWLLDHHPSSGQPPPSC (bridge 16-20; not fully specified (bridges)) [trigonal agonist of SEQ ID NO: 11]	67.4	50.5	2.7
Y[Aib]QGTFTSDYSKYLDEKRAKEFVQWLLDHCPSSGQPPPS (bridge 16-20; not fully specified (bridges); ends not checked) [trigonal agonist of SEQ ID NO: 40]	34.4	195	5.2
Y[Aib]QGTFTSDYSKYLDEKRAKEFVQWLLDHHPSSGQPPPSC (lactam 16-20) [trigonal agonist of SEQ ID NO: 9]	33.9	206	7.8
Y[Aib]QGTFTSDYSKYLDEKRAKEFVQWLLDCHPSSGQPPPS (bridge 16-20; not fully specified (bridges); ends not checked) [trigonal agonist of SEQ ID NO: 41]	10.5	62.8	2.6
Y[Aib]QGTFTSDYSKYLDECRAKEFVQWLLDHHPSSGQPPPS (bridge 16-20; not fully specified (bridges)) [trigonal agonist of SEQ ID NO: 1]	17.8	267	22.7
H[Aib]QGTFTSDYSKYLDECRQKEFVQWLLNGGPSSGAPPPSG (bridge 16-20; not fully specified (bridges)) [trigonal agonist of SEQ ID NO: 8]	236	6.21	2.2
H[Aib]QGTFTSDYSKYLDEKACKEFVQWLLAQ (bridge 16-20; not fully specified (bridges)) [trigonal agonist of SEQ ID NO: 4]	135	2.2	2.4
Y[Aib]QGTFTSDYSKALDEKAAKDFVNWLLDQHPSSGQPPPSC (bridge 16-20; not fully specified (bridges)) [trigonal agonist of SEQ ID NO: 46]	23.3	29.5	58
H[Aib]QGTFTSDYSKYLDEKRQKEFVQWLLNTC (bridge 16-20; not fully specified (bridges)) [trigonal agonist of SEQ ID NO: 12]	14.4	2	0.1
Y[Aib]QGTFTSDYSKALDEKAAKEFVQWLLDQHPSSGQPPPSC (bridge 16-20; not fully specified (bridges)) [trigonal agonist of SEQ ID NO: 44]	42.2	12.7	118
Y[Aib]QGTFTSDYSKALDEKAAKDFVNWLLDHHPSSGQPPPSC (bridge 16-20; not fully specified (bridges)) [trigonal agonist of SEQ ID NO: 43]	20.9	14.9	57.7
H[Aib]EGTFTSDYSIAMDEIHQKDFVDWLLAEKC (bridge 16-20; not fully specified (bridges)) [trigonal agonist of SEQ ID NO: 35]	8.1	0	0.1
[Acetyl(2-(4-imidazolyl))][Aib]EGTFTSDYSIAMDEIHQKDFVDWLLAEKC (bridge 16-20; not fully specified (bridges)) [trigonal agonist of SEQ ID NO: 38]	31.9	16.8	0.3
H[Aib]QGTFTSDYSKYLCEKRQKEFVQWLLNGGPSSGAPPPSG (bridge 16-20; not fully specified (bridges)) [trigonal agonist of SEQ ID NO: 7]	37.4	0.39	0.2
Y[Aib]QGTFTSDYSKALDEKAAKEFVNWLLDQHPSSGQPPPSC (bridge 16-20; not fully specified (bridges)) [trigonal agonist of SEQ ID NO: 45]	23.2	13.9	40.1
